Earlier results as cited in article PMC8152036.
pKd: −log10 of the molar value.

How the values were obtained:
Test in all cases: SPR
[1] = target: RNase J1 (Bacillus subtilis) (UniProt Q45493)
[2] = target: RNase Y (Bacillus subtilis) (UniProt O31774)
PfkA (Bacillus subtilis) = PfkA (Bacillus subtilis) (UniProt O34529)
UniProt O34529, sequence (O34529 whole entry): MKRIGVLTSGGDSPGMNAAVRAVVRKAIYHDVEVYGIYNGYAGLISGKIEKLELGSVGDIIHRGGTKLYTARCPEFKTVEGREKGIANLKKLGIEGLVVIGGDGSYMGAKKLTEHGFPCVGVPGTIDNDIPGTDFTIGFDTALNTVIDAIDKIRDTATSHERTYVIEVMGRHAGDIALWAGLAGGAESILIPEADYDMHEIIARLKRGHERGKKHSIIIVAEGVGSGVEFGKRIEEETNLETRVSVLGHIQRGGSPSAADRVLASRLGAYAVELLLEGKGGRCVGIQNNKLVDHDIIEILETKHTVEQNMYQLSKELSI

UniProt O31774, sequence (O31774 whole entry): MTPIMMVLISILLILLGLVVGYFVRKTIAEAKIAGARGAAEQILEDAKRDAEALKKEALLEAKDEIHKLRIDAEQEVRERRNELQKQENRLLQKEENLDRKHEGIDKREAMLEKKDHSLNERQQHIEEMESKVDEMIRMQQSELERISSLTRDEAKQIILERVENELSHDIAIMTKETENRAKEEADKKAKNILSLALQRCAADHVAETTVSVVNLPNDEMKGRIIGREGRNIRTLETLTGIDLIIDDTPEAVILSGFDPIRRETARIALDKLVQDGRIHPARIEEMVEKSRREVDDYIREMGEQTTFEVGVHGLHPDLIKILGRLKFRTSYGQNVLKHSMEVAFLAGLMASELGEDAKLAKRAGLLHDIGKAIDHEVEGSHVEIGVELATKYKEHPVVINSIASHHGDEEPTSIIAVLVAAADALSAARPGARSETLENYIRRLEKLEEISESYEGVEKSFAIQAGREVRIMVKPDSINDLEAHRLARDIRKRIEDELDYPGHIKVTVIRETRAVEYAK
UniProt Q45493, sequence (Q45493 whole entry): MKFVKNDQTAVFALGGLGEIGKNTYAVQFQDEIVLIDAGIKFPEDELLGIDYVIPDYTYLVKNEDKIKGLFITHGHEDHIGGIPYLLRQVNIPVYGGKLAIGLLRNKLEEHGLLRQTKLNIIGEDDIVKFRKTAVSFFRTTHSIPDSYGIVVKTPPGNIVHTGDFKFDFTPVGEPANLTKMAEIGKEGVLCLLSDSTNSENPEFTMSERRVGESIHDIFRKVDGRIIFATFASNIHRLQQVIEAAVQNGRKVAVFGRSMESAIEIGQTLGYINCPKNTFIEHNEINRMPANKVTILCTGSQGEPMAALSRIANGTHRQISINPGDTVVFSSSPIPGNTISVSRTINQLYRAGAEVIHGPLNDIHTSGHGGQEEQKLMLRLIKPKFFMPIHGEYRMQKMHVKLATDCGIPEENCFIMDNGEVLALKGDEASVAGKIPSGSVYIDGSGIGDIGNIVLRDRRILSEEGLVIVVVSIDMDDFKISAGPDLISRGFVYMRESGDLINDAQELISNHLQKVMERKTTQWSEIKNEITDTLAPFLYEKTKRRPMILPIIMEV

Substance	pKd [1]	pKd [2]	pKd (PfkA (Bacillus subtilis))
PNPase (from UniProt P50849)	6.60	8.30	–
Enolase (from UniProt P37869)	–	7.00	7.40
